Sequences and labels used below:
B1: Twister Ribozyme (parent)
chain: AACACUGCCAAUGCCGGUCCCAAGCCCGGAUAAAAGUGGAGGGGGCGG

This data set covers variants of B1. Briefly: self-cleavage, relative activity (ratio to wild type); higher = more cleavage; co-transcriptional.
For AUCACUGCCAAUGCCGGGCCCAAGCCCGGAUAAAAGUGGAGGGGGCGG, the self-cleavage was determined as 0.0917.
Take AUCACUGCCAAUGCCGGUCCCAAGCCCGGAUAUAAGUGGAGGGGGCGG: the self-cleavage turned out to be 0.655.
Consider AUCACUGCCAAUGCCGGUCCCAAGCCCGGAUACAAGUGGAGGGGGCGG, for which the self-cleavage stood at 0.457.
Turning to AUCACUGCCCAUGCCGGUCCCAAGCCCGGAUAAAAGUGGAGGGGGCGG, the self-cleavage was found to be 0.449.
Turning to AUCACUGCCUAUGCCGGUCCCAAGCCCGGAUAAAAGUGGAGGGGGCGG, the self-cleavage was 0.604.
As to AUCACUGCCAAUGCCGGUCCCAAGCCCGUAUAAAAGUGGAGGGGGCGG, the self-cleavage came out at 0.484.
For the variant AUCACUGCCAAUGCCGGUCCCAAGCCCGAAUAAAAGUGGAGGGGGCGG, the self-cleavage amounted to 0.474.
Take AGCACUGCCAAUGCCGGUCCCAAGCCCGGAUAAAAGCGGAGGGGGCGG: the self-cleavage is 0.0955.
As to AUCACUGCCAAUGCCGGUCCCAAGCACGGAUAAAAGUGGAGGGGGCGG, the self-cleavage came to 0.131.
With AUCACUGCCAAUGCCGGUCCCAAGCCCGGAUUAAAGUGGAGGGGGCGG, the self-cleavage was 0.722.
Consider AUCACUGCCAAUGCCGGUCCCAAGCCCUGAUAAAAGUGGAGGGGGCGG, for which the self-cleavage amounted to 0.519.
Consider AAAACUGCCAAUGCCGGUCCCACGCCCGGAUAAAAGUGGAGGGGGCGG, for which the self-cleavage was determined as 0.0997.
Turning to AUCACUGCCAAUGCAGGUCCCAAGCCCGGAUAAAAGUGGAGGGGGCGG, the self-cleavage stood at 0.194.
In the case of AUCACUGCCAAUGCGGGUCCCAAGCCCGGAUAAAAGUGGAGGGGGCGG, the self-cleavage came out at 0.0661.
AUCACUGGCAAUGCCGGUCCCAAGCCCGGAUAAAAGUGGAGGGGGCGG: the self-cleavage was 0.0705.
As to AUCACUGUCAAUGCCGGUCCCAAGCCCGGAUAAAAGUGGAGGGGGCGG, the self-cleavage was 0.109.
For AUCACUGCCAAUGCCGGUCCCAAGCCCGGAUAAAAGUGUAGGGGGCGG, the self-cleavage worked out at 0.188.
Consider AUCACUGCCAAUGCCGGUCCCAAGCCCGGAUAAAAGUGCAGGGGGCGG, for which the self-cleavage came to 0.18.
As to AUCACUCCCAAUGCCGGUCCCAAGCCCGGAUAAAAGUGGAGGGGGCGG, the self-cleavage turned out to be 0.0748.
For AUCACUGCCAAUGCCGGUCCCAAGCCCGGAUAAAAGUGGAGAGGGCGG the value was 0.164; for AUCACUGCCAAUGCCGGUCCCAAGCCCGGAUAAAAGUGGAGUGGGCGG, 0.172; for AUCACUGCCAAUGCCGGUCCCAAGCCCGGAUAAAAGUGGAGCGGGCGG, 0.134.
For AUCACUGCCAAUGCCGGUCCCAAACCCGGAUAAAAGUGGAGGGGGCGG, the self-cleavage worked out at 0.112.
In the case of AUCACUGCCAAUGCCGGUCCCAACCCCGGAUAAAAGUGGAGGGGGCGG, the self-cleavage was 0.109.
For AGCACUGCCAAUGCCGGUCCCAAGCCCGGAUAAAAGUGUAGGGGGCGG, the self-cleavage is 0.122.
Consider AGCACUGCCAAUGCCGGUCCCAAGCCCGGAUAAAAGUGCAGGGGGCGG, for which the self-cleavage turned out to be 0.0951.
For the variant AGCACUGCCAAUGCCGGUCCCAAGCCCGGAUAAAAGUGGAGAGGGCGG, the self-cleavage worked out at 0.148.
On to AGCACUGCCAAUGCCGGGCCCAAGCCCGGAUAAAAGUGGAGGGGGCGG, for which the self-cleavage is 0.0967.
With AGCACUGCCAAUGCCGGACCCAAGCCCGGAUAAAAGUGGAGGGGGCGG, the self-cleavage worked out at 0.123.
For the variant AUCACUGCCAAUGCCGGUCGCAAGCCCGGAUAAAAGUGGAGGGGGCGG, the self-cleavage was 0.0669.
The value for AGCACUGCCAAUGCCGGUCCCAAGCCCGGAGAAAAGUGGAGGGGGCGG was 0.324.
On to AGCACUGCCAAUGCCGGUCCCAAGCCCGGACAAAAGUGGAGGGGGCGG, for which the self-cleavage turned out to be 0.3.
The value for AGCACUGCCAAUGCCGGUCCCAAGCCCGGAAAAAAGUGGAGGGGGCGG was 0.328; that for AUCACUGCCACUGCCGGUCCCAAGCCCGGAUAAAAGUGGAGGGGGCGG was 0.309.
Regarding AUCACUGCCAUUGCCGGUCCCAAGCCCGGAUAAAAGUGGAGGGGGCGG, the self-cleavage was found to be 0.75.
Regarding AAAACUGCCAUUGCCGGUCCCAAGCCCGGAUAAAAGUGGAGGGGGCGG, the self-cleavage was 0.212.
Consider AAAACUGCCACUGCCGGUCCCAAGCCCGGAUAAAAGUGGAGGGGGCGG, for which the self-cleavage is 0.153.
On to AUCACUGCCAAUGCCGGUCCCAAGCCAGGAUAAAAGUGGAGGGGGCGG, for which the self-cleavage amounted to 0.124.
On to AUCACUGCCAAUGCCGGUCCCAAGCCUGGAUAAAAGUGGAGGGGGCGG, for which the self-cleavage worked out at 0.357.
Turning to AUCACUGCCAAUGCCGGUCCCAAGCCGGGAUAAAAGUGGAGGGGGCGG, the self-cleavage stood at 0.126.
The value for AUCACUGCCAAUGCCGGUCCCAAGCCCGGAUAAAACUGGAGGGGGCGG was 0.129.
For AUCACUGCCAAUGCCGGUCCCAAGCCCGGAUAAAAGAGGAGGGGGCGG the value was 0.202; for AUCACUGCCAAUGCCGGUCCCAAGCCCGGAUAAAAGUGGAGGGGGGGG, 0.53; for AUCACUGCCAAUGCCGGUCCCAAGCCCGGUUAAAAGUGGAGGGGGCGG, 0.713.
As for AAAUCUGCCAAUGCCGGUCCCAAGCCCGGAUAAAAGUGGAGGGGGCGG, the self-cleavage is 0.0689.
For AAACCUGCCAAUGCCGGUCCCAAGCCCGGAUAAAAGUGGAGGGGGCGG, the self-cleavage is 0.0653.
In the case of AUCACUGCCAAUGCCGGUCCCAAGCCCGGAUAAAAGUGGAUGGGGCGG, the self-cleavage is 0.157.
Consider AUCACUGCCAAUGCCGGUCCCAAGCCCGGAAAAAAGUGGAGGGGGCGG, for which the self-cleavage was determined as 0.605.
With AUCACUGCCAAUGCCGGUCCCAAGCCCGGAGAAAAGUGGAGGGGGCGG, the self-cleavage worked out at 0.626.
For AUCACUGCCAAUGCCGGUCCCAAGCCCGGAUAAAAGUGGAGGGGGCGC the value was 0.67; for AUCACUGCCAAUGCCGGUCCCAAGCCCGGAUAAAAGUGGAGGGGGCGA, 0.353.
On to AUCACUGCCAAGGCCGGUCCCAAGCCCGGAUAAAAGUGGAGGGGGCGG, for which the self-cleavage was 0.557.
Regarding AUCACUGCCAAAGCCGGUCCCAAGCCCGGAUAAAAGUGGAGGGGGCGG, the self-cleavage was determined as 0.667.
For AGCACUGCCAAUGCCGGUCCCAAGCCCGGAUAAAAGUGGAGGGGCCGG the value was 0.0901.

The values are drawn from the RNAGym collection of RNA variant scans (doi:10.7554/elife.80360).
